Results as given in the supplement of paper PMC11246515.
± gives the standard deviation of the averaged measurements.

Experiment: total protein half-life in vivo (active degradation + dilution); higher = more stable protein
[1] = E. coli NCM3722 delta-clpP delta-lon delta-hslV, growth: N-lim chemostat, doubling time 6 h
[2] = E. coli NCM3722 delta-clpP, growth: N-lim chemostat, doubling time 6 h
[3] = E. coli NCM3722 delta-hslV, growth: N-lim chemostat, doubling time 6 h
[4] = E. coli NCM3722 delta-lon, growth: N-lim chemostat, doubling time 6 h
[5] = E. coli NCM3722 delta-smpB, growth: N-lim chemostat, doubling time 6 h
[6] = wild type E. coli NCM3722, growth: C-lim chemostat, doubling time 3 h
[7] = wild type E. coli NCM3722, growth: C-lim chemostat, doubling time 6 h
[8] = wild type E. coli NCM3722, growth: C-lim chemostat, doubling time 12 h
[9] = wild type E. coli NCM3722, growth: N-lim chemostat, doubling time 6 h
[10] = wild type E. coli NCM3722, growth: N-lim chemostat, doubling time 12 h
[11] = wild type E. coli NCM3722, growth: P-lim chemostat, doubling time 6 h
[12] = wild type E. coli NCM3722, growth: P-lim chemostat, doubling time 12 h

| Sequence | total protein half-life in vivo [1] | total protein half-life in vivo [2] | total protein half-life in vivo [3] | total protein half-life in vivo [4] | total protein half-life in vivo [5] | total protein half-life in vivo [6] | total protein half-life in vivo [7] | total protein half-life in vivo [8] | total protein half-life in vivo [9] | total protein half-life in vivo [10] | total protein half-life in vivo [11] | total protein half-life in vivo [12] |
| --- | --- | --- | --- | --- | --- | --- | --- | --- | --- | --- | --- | --- |
| MTNRISRLKTALFANTREISLERALLYTASHRQTEGEPVILRRAKATAYILEHVEISIRDEELIAGNRTVKPRAGIMSPEMDPYWLLKELDQFPTRPQDRFAISEEDKRIYREELFPYWEKRSMKDFINGQMTDEVKAATNTQIFSINQTDKGQGHIIIDYPRLLNHGLGELVAQMQQHCQQQPENHFYQAALLLLEASQKHILRYAELAETMAANCTDAQRREELLTIAEISRHNAQHKPQTFWQACQLFWYMNIILQYESNASSLSLGRFDQYMLPFYQTSLTQGEDAAFLKELLESLWVKCNDIVLLRSTSSARYFAGFPTGYTALLGGLTENGRSAVNVLSFLCLDAYQSVQLPQPNLGVRTNALIDTPFLMKTAETIRFGTGIPQIFNDEVVVPAFLNRGVSLEDARDYSVVGCVELSIPGRTYGLHDIAMFNLLKVMEICLHENEGNAALTYEGLLEQIRAKISHYITLMVEGSNICDIGHRDWAPVPLLSSFISDCLEKGRDITDGGARYNFSGVQGIGIANLSDSLHALKGMVFEQQRLSFDELLSVLKANFATPEGEKVRARLINRFEKYGNDIDEVDNISAELLRHYCKEVEKYQNPRGGYFTPGSYTVSAHVPLGSVVGATPDGRFAGEQLADGGLSPMLGQDAQGPTAVLKSVSKLDNTLLSNGTLLNVKFTPATLEGEAGLRKLADFLRAFTQLKLQHIQFNVVNADTLREAQQRPQDYAGLVVRVAGYSAFFVELSKEIQDDIIRRTAHQL | 5.49 ± 0.94 h | 3.15 ± 0.29 h | – | – | – | – | – | – | – | – | – | – |
| MTEQATTTDELAFTRPYGEQEKQILTAEAVEFLTELVTHFTPQRNKLLAARIQQQQDIDNGTLPDFISETASIRDADWKIRGIPADLEDRRVEITGPVERKMVINALNANVKVFMADFEDSLAPDWNKVIDGQINLRDAVNGTISYTNEAGKIYQLKPNPAVLICRVRGLHLPEKHVTWRGEAIPGSLFDFALYFFHNYQALLAKGSGPYFYLPKTQSWQEAAWWSEVFSYAEDRFNLPRGTIKATLLIETLPAVFQMDEILHALRDHIVGLNCGRWDYIFSYIKTLKNYPDRVLPDRQAVTMDKPFLNAYSRLLIKTCHKRGAFAMGGMAAFIPSKDEEHNNQVLNKVKADKSLEANNGHDGTWIAHPGLADTAMAVFNDILGSRKNQLEVMREQDAPITADQLLAPCDGERTEEGMRANIRVAVQYIEAWISGNGCVPIYGLMEDAATAEISRTSIWQWIHHQKTLSNGKPVTKALFRQMLGEEMKVIASELGEERFSQGRFDDAARLMEQITTSDELIDFLTLPGYRLLA | 5.7 ± 1.2 h | 4.82 ± 0.056 h | 1.75 ± 0.022 h | 2.2 ± 0.35 h | 1.76 ± 0.22 h | 2.25 ± 0.18 h | 3.17 ± 0.25 h | 4.18 ± 0.32 h | 2.5 ± 1 h | 2.59 ± 0.19 h | 2.73 ± 0.2 h | 5.08 ± 0.14 h |
| MAYRDQPLGELALSIPRASALFRKYDMDYCCGGKQTLARAAARKELDVEVIEAELAKLAEQPIEKDWRSAPLAEIIDHIIVRYHDRHREQLPELILQATKVERVHADKPSVPKGLTKYLTMLHEELSSHMMKEEQILFPMIKQGMGSQAMGPISVMESEHDEAGELLEVIKHTTNNVTPPPEACTTWKAMYNGINELIDDLMDHISLENNVLFPRALAGE | – | – | – | > 8 h | 2.54 h | 2.72 h | – | – | – | – | – | – |
| MKLIITEDYQEMSRVAAHHLLGYMSKTRRVNLAITAGSTPKGMYEYLTTLVKGKPWYDNCYFYNFDEIPFRGKEGEGVTITNLRNLFFTPAGIKEENIQKLTIDNYREHDQKLAREGGLDLVVLGLGADGHFCGNLPNTTHFHEQTVEFPIQGEMVDIVAHGELGGDFSLVPDSYVTMGPKSIMAAKNLLIIVSGAGKAQALKNVLQGPVTEDVPASVLQLHPSLMVIADKAAAAELALG | 5.36 ± 0.6 h | – | – | – | – | 2.47 h | 3.24 h | – | 2.68 h | – | – | – |
| MFSIKPGPRNLPIDNPTLLSWNITDGDLNSKLNTLEYLNCITNIINSCGVYPQGLKDREIISTFHAEKVINDLLKNDYKISLSPDTTYRELNKAAQRSITAPDRIGERKTWVYQRDTMIERGDNSGVYQYGRAEHFTHIISDKPSPKDKYVAYAINIPDYELAADVYNINVTSPSGQQETFKILINLEHLRQTLERKSLTAVQKSQCEIITPKKPGEAILHAFNATYQQIRENMSEFARCHYGYIQIPPVTTFRADGPETPEEEKGYWFHAYQPEDLCTIHNPMGDLQDFIALVKDAKKFGIDIIPDYTFNFMGIGGSGKNDLDYPSADIRAKISKDIEGGIPGYWQGQVLIPFIKDPVTKERKQIHPEDIHLTAKDFEASKDNISKDEWENLHALKEKRLNGMPKTTPKSDQVIMLQNQYVREMRKYGVRGLRYDAAKHSKHEQIERSITPPLKNYNERLHNTNLFNPKYHKKAVMNYMEYLVTCQLDEQQMSSLLYERDDLSAIDFSLLMKTIKAFSFGGDLQTLASKPGSTISSIPSERRILININHDFPNNGNLFNDFLFNHQQDEQLAMAYIAALPFSRPLVYWDGQVLKSTTEIKNYDGSTRVGGEAWLNKGCSTYQQLYNEFHALYIDKAGIWSAFEGVSATKNVLAFSRGDSVNINHSPHDGLVIINKGNEEVEGTWPNKLQPGIYKNMGSNSVNIIINNTRKIIPPGKVFTLRGGTLNINIPGRSALLLGKTGEPPNYLYL | 4.26 ± 0.095 h | 3.78 h | 3.6 ± 0.55 h | 3.86 ± 0.15 h | 3.93 ± 0.2 h | 3.14 ± 0.21 h | 4.93 h | 9.02 h | 3.51 h | 5.65 h | 4.45 h | 11.3 ± 3.7 h |
| MALTAALKAQIAAWYKALQEQIPDFIPRAPQRQMIADVAKTLAGEEGRHLAIEAPTGVGKTLSYLIPGIAIAREEQKTLVVSTANVALQDQIYSKDLPLLKKIIPDLKFTAAFGRGRYVCPRNLTALASTEPTQQDLLAFLDDELTPNNQEEQKRCAKLKGDLDTYKWDGLRDHTDIAIDDDLWRRLSTDKASCLNRNCYYYRECPFFVARREIQEAEVVVANHALVMAAMESEAVLPDPKNLLLVLDEGHHLPDVARDALEMSAEITAPWYRLQLDLFTKLVATCMEQFRPKTIPPLAIPERLNAHCEELYELIASLNNILNLYMPAGQEAEHRFAMGELPDEVLEICQRLAKLTEMLRGLAELFLNDLSEKTGSHDIVRLHRLILQMNRALGMFEAQSKLWRLASLAQSSGAPVTKWATREEREGQLHLWFHCVGIRVSDQLERLLWRSIPHIIVTSATLRSLNSFSRLQEMSGLKEKAGDRFVALDSPFNHCEQGKIVIPRMRVEPSIDNEEQHIAEMAAFFRKQVESKKHLGMLVLFASGRAMQRFLDYVTDLRLMLLVQGDQPRYRLVELHRKRVANGERSVLVGLQSFAEGLDLKGDLLSQVHIHKIAFPPIDSPVVITEGEWLKSLNRYPFEVQSLPSASFNLIQQVGRLIRSHGCWGEVVIYDKRLLTKNYGKRLLDALPVFPIEQPEVPEGIVKKKEKTKSPRRRRR | 5.64 ± 0.42 h | 4.6 ± 0.54 h | 4.38 ± 0.61 h | 4.265 ± 0.026 h | 4.63 ± 0.33 h | 2.59 ± 0.09 h | 3.93 ± 0.69 h | 9.99 ± 0.84 h | 4.18 ± 0.2 h | 6.77 ± 1.1 h | 4.57 ± 0.25 h | 8.11 ± 0.31 h |
